Assay results from the supplement of paper PMC11246515.
± gives the standard deviation of the averaged measurements.

Assay: total protein half-life in vivo (active degradation + dilution); higher = more stable protein
[1] = E. coli NCM3722 delta-clpP delta-lon delta-hslV, growth: N-lim chemostat, doubling time 6 h
[2] = E. coli NCM3722 delta-clpP, growth: N-lim chemostat, doubling time 6 h
[3] = E. coli NCM3722 delta-hslV, growth: N-lim chemostat, doubling time 6 h
[4] = E. coli NCM3722 delta-lon, growth: N-lim chemostat, doubling time 6 h
[5] = E. coli NCM3722 delta-smpB, growth: N-lim chemostat, doubling time 6 h
[6] = wild type E. coli NCM3722, growth: C-lim chemostat, doubling time 3 h
[7] = wild type E. coli NCM3722, growth: C-lim chemostat, doubling time 6 h
[8] = wild type E. coli NCM3722, growth: C-lim chemostat, doubling time 12 h
[9] = wild type E. coli NCM3722, growth: N-lim chemostat, doubling time 6 h
[10] = wild type E. coli NCM3722, growth: N-lim chemostat, doubling time 12 h
[11] = wild type E. coli NCM3722, growth: P-lim chemostat, doubling time 6 h
[12] = wild type E. coli NCM3722, growth: P-lim chemostat, doubling time 12 h

MSDSQTLVVKLGTSVLTGGSRRLNRAHIVELVRQCAQLHAAGHRIVIVTSGAIAAGREHLGYPELPATIASKQLLAAVGQSRLIQLWEQLFSIYGIHVGQMLLTRADMEDRERFLNARDTLRALLDNNIVPVINENDAVATAEIKVGDNDNLSALAAILAGADKLLLLTDQKGLYTADPRSNPQAELIKDVYGIDDALRAIAGDSVSGLGTGGMSTKLQAADVACRAGIDTIIAAGSKPGVIGDVMEGISVGTLFHAQATPLENRKRWIFGAPPAGEITVDEGATAAILERGSSLLPKGIKSVTGNFSRGEVIRICNLEGRDIAHGVSRYNSDALRRIAGHHSQEIDAILGYEYGPVAVHRDDMITR [P0A7B5]
total protein half-life in vivo [1]: 3.94 ± 0.49 h
total protein half-life in vivo [2]: 3.94 ± 0.43 h
total protein half-life in vivo [3]: 4.25 ± 0.076 h
total protein half-life in vivo [4]: 5.654 ± 0.012 h
total protein half-life in vivo [5]: 3.57 ± 0.05 h
total protein half-life in vivo [6]: 2.98 ± 0.13 h
total protein half-life in vivo [7]: 5.35 ± 0.17 h
total protein half-life in vivo [8]: 9.09 ± 0.098 h
total protein half-life in vivo [9]: 4.4 ± 0.31 h
total protein half-life in vivo [10]: 9.48 ± 1.3 h
total protein half-life in vivo [11]: 5.69 ± 0.71 h
total protein half-life in vivo [12]: 11.7 ± 0.25 h

MKKSILALSLLVGLSTAASSYAALPETVRIGTDTTYAPFSSKDAKGDFVGFDIDLGNEMCKRMQVKCTWVASDFDALIPSLKAKKIDAIISSLSITDKRQQEIAFSDKLYAADSRLIAAKGSPIQPTLDSLKGKHVGVLQGSTQEAYANETWRSKGVDVVAYANQDLVYSDLAAGRLDAALQDEVAASEGFLKQPAGKDFAFAGSSVKDKKYFGDGTGVGLRKDDAELTAAFNKALGELRQDGTYDKMAKKYFDFNVYGD
total protein half-life in vivo [1]: 6.69 ± 0.15 h
total protein half-life in vivo [3]: 6.37 ± 0.68 h
total protein half-life in vivo [4]: 6.79 ± 0.077 h
total protein half-life in vivo [5]: 5.31 ± 0.11 h
total protein half-life in vivo [6]: 3.22 ± 0.3 h
total protein half-life in vivo [7]: 6.33 ± 0.92 h
total protein half-life in vivo [8]: 11.58 ± 0.11 h
total protein half-life in vivo [9]: 5.27 ± 0.47 h
total protein half-life in vivo [10]: 8.71 ± 0.59 h
total protein half-life in vivo [11]: 5.98 ± 0.25 h
total protein half-life in vivo [12]: 11.4 ± 1.6 h

MNPQLLRVTNRIIERSRETRSAYLARIEQAKTSTVHRSQLACGNLAHGFAACQPEDKASLKSMLRNNIAIITSYNDMLSAHQPYEHYPEIIRKALHEANAVGQVAGGVPAMCDGVTQGQDGMELSLLSREVIAMSAAVGLSHNMFDGALFLGVCDKIVPGLTMAALSFGHLPAVFVPSGPMASGLPNKEKVRIRQLYAEGKVDRMALLESEAASYHAPGTCTFYGTANTNQMVVEFMGMQLPGSSFVHPDSPLRDALTAAAARQVTRMTGNGNEWMPIGKMIDEKVVVNGIVALLATGGSTNHTMHLVAMARAAGIQINWDDFSDLSDVVPLMARLYPNGPADINHFQAAGGVPVLVRELLKAGLLHEDVNTVAGFGLSRYTLEPWLNNGELDWREGAEKSLDSNVIASFEQPFSHHGGTKVLSGNLGRAVMKTSAVPVENQVIEAPAVVFESQHDVMPAFEAGLLDRDCVVVVRHQGPKANGMPELHKLMPPLGVLLDRCFKIALVTDGRLSGASGKVPSAIHVTPEAYDGGLLAKVRDGDIIRVNGQTGELTLLVDEAELAAREPHIPDLSASRVGTGRELFSALREKLSGAEQGATCITF [P0ADF6]
total protein half-life in vivo [1]: 3.58 ± 0.62 h
total protein half-life in vivo [2]: 3.24 h
total protein half-life in vivo [3]: 3.51 ± 0.99 h
total protein half-life in vivo [4]: 3.46 h
total protein half-life in vivo [5]: 2.97 ± 0.12 h
total protein half-life in vivo [6]: 3.07 ± 0.33 h
total protein half-life in vivo [8]: 8.61 h
total protein half-life in vivo [9]: 2.98 ± 0.2 h
total protein half-life in vivo [10]: 4.531 ± 0.012 h
total protein half-life in vivo [11]: 5.33 ± 0.3 h
total protein half-life in vivo [12]: 9.86 ± 0.35 h

MNSLRPELLELTPQALTALSNAGFVKRSLKELENGNVPEISHENDALIATFSDGVRTQLANGQALKEAQCSCGANGMCRHRVMLVLSYQRLCATTQSTEKEEEWDPAIWLEELATLPDATRKRAQALVAKGITIELFCAPGEIPSARLPMSDVRFYSRSSIRFARCDCIEGTLCEHVVLAVQAFVEAKAQQAEFNHLIWQMRSEHVTSSDDPFASEEGNACRQYVQQLSQTLWLGGISQPLIHYEAAFNRALQAAETCNWRWVSESLRQLRASVDAFHARASHYNAGECLHQLAALNSRLNCAQEMARRDSIGEVPPVPWRTVVGSGIAGEAKLDHLRLVSLGMRCWQDIEHYGLRIWFTDPDTGSILHLSRSWPRSEQENSPAATRRLFSFQAGALAGGQIVSQAAKRSADGELLLATRNRLSSVVPLSPDAWQMLSAPLRQPGIVALREYLRQRPPACIRPLNQVDNLFILPVAECISLGWDSSRQTLDAQVISGEGEDNVLTLSLPASASAPYAVERMAALLQQTDDPVCLVSGFVSFVEGQLTLEPRVMMTKTRAWALDAETTPVAPLPSASVLPVPSTAHQLLIRCQALLIQLLHNGWRYQEQSAIGQA
total protein half-life in vivo [1]: 3.47 h

MANADLDKQPDSVSSVLKVFGILQALGEEREIGITELSQRVMMSKSTVYRFLQTMKTLGYVAQEGESEKYSLTLKLFELGARALQNVDLIRSADIQMRELSRLTKETIHLGALDEDSIVYIHKIDSMYNLRMYSRIGRRNPLYSTAIGKVLLAWRDRDEVKQILEGVEYKRSTERTITSTEALLPVLDQVREQGYGEDNEEQEEGLRCIAVPVFDRFGVVIAGLSISFPTLRFSEERLQEYVAMLHTAARKISAQMGYHDYPF
total protein half-life in vivo [1]: 6.07 ± 1.7 h
total protein half-life in vivo [2]: 6.18 ± 1.6 h
total protein half-life in vivo [3]: 4.82 ± 0.33 h
total protein half-life in vivo [4]: 5.09 ± 0.25 h
total protein half-life in vivo [5]: 5.01 ± 0.17 h
total protein half-life in vivo [6]: 3.01 ± 0.13 h
total protein half-life in vivo [7]: 5.91 ± 0.28 h
total protein half-life in vivo [8]: 10.2 ± 0.83 h
total protein half-life in vivo [9]: 5.255 ± 0.017 h
total protein half-life in vivo [10]: 8.11 ± 0.13 h
total protein half-life in vivo [11]: 5.82 ± 0.61 h
total protein half-life in vivo [12]: 11.1 ± 0.7 h

MRFMQRSKDSLAKWLSAILPVVIVGLVGLFAVTVIRDYGRASEADRQALLEKGNVLIRALESGSRVGMGMRMHHVQQQALLEEMAGQPGVLWFAVTDAQGIIILHSDPDKVGRALYSPDEMQKLKPEENSRWRLLGKTETTPALEVYRLFQPMSAPWRHGMHNMPRCNGKAVPQVDAQQAIFIAVDASDLVATQSGEKRNTLIILFALATVLLASVLSFFWYRRYLRSRQLLQDEMKRKEKLVALGHLAAGVAHEIRNPLSSIKGLAKYFAERAPAGGEAHQLAQVMAKEADRLNRVVSELLELVKPTHLALQAVDLNTLINHSLQLVSQDANSREIQLRFTANDTLPEIQADPDRLTQVLLNLYLNAIQAIGQHGVISVTASESGAGVKISVTDSGKGIAADQLDAIFTPYFTTKAEGTGLGLAVVHNIVEQHGGTIQVASQEGKGSTFTLWLPVNITRKDPQG
total protein half-life in vivo [1]: 5.89 h
total protein half-life in vivo [3]: 6.11 ± 0.45 h
total protein half-life in vivo [5]: 5.27 ± 0.29 h
total protein half-life in vivo [6]: 3.57 ± 0.24 h
total protein half-life in vivo [7]: 4.91 h
total protein half-life in vivo [8]: 13.4 ± 2.7 h
total protein half-life in vivo [9]: 5.12 h
total protein half-life in vivo [10]: 14.1 h
total protein half-life in vivo [12]: 11.4 ± 0.38 h

MTQLAIGKPAPLGAHYDGQGVNFTLFSAHAERVELCVFDANGQEHRYDLPGHSGDIWHGYLPDARPGLRYGYRVHGPWQPAEGHRFNPAKLLIDPCARQIDGEFKDNPLLHAGHNEPDYRDNAAIAPKCVVVVDHYDWEDDAPPRTPWGSTIIYEAHVKGLTYLHPEIPVEIRGTYKALGHPVMINYLKQLGITALELLPVAQFASEPRLQRMGLSNYWGYNPVAMFALHPAYACSPETALDEFRDAIKALHKAGIEVILDIVLNHSAELDLDGPLFSLRGIDNRSYYWIREDGDYHNWTGCGNTLNLSHPAVVDYASACLRYWVETCHVDGFRFDLAAVMGRTPEFRQDAPLFTAIQNCPVLSQVKLIAEPWDIAPGGYQVGNFPPLFAEWNDHFRDAARRFWLHYDLPLGAFAGRFAASSDVFKRNGRLPSAAINLVTAHDGFTLRDCVCFNHKHNEANGEENRDGTNNNYSNNHGKEGLGGSLDLVERRRDSIHALLTTLLLSQGTPMLLAGDEHGHSQHGNNNAYCQDNQLTWLDWSQASSGLTAFTAALIHLRKRIPALVENRWWEEGDGNVRWLNRYAQPLSTDEWQNGPKQLQILLSDRFLIAINATLEVTEIVLPAGEWHAIPPFAGEDNPVITAVWQGPAHGLCVFQR
total protein half-life in vivo [1]: 5.66 ± 0.38 h
total protein half-life in vivo [2]: 5.35 ± 0.093 h
total protein half-life in vivo [3]: 5.23 ± 0.074 h
total protein half-life in vivo [4]: 6.01 ± 0.45 h
total protein half-life in vivo [5]: 5.62 ± 0.72 h
total protein half-life in vivo [6]: 3.31 ± 0.7 h
total protein half-life in vivo [7]: 5.47 ± 0.28 h
total protein half-life in vivo [8]: 10.5 ± 0.48 h
total protein half-life in vivo [9]: 5.46 ± 0.36 h
total protein half-life in vivo [10]: 10.2 ± 0.7 h
total protein half-life in vivo [11]: 6.42 ± 0.68 h
total protein half-life in vivo [12]: 11.6 ± 1.6 h
